{"source": "paper PMC3098285", "biological_target": "T1, His-PhoP (Salmonella enterica serovar Typhimurium (strain SL1344?)) (UniProt E1WFA1)", "T1 sequence": "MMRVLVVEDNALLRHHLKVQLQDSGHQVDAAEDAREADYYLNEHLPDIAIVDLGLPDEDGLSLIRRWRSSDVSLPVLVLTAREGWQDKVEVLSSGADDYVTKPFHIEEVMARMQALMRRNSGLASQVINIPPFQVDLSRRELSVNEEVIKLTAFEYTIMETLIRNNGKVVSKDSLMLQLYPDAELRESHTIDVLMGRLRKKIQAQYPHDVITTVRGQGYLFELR", "assay": "EMSA", "details": "20 mM HEPES pH 7.6, 1 mM EDTA, 10 mM (NH4)2SO4, 5 mM DTT, 0.2% Tween 20, 30 mM KCl, 0.1 ug poly-L-lysine, 1 ug poly(dI-dC), 50 mM acetyl phosphate, 37 C …"}
{"sequence": "CGCTCACCTCTTCTGTATATAAGCTGTGAAATTGCGGTATGCTCAATCGGTAAAGTGAATTTACACATATATTCATTTTGCTCTGTTTCCTGGTAAGTGAAAGTAGCGAATATGATGTAATGTATAATT (double strand) [sseL promoter 128-bp fragment]", "values": [{"measurement": "binding", "result": "binds"}]}
